In PMC2843633:

Molecular target: human fibrinogen receptor (GPIIb/IIIa), purified (human) (UniProt P05106)
Experiment: ELISA; GPIIb/IIIa coated at 40 nM on Nunc Maxisorb plates; 5′Nuc/SUMO 250 – 1.95 nM in solution, 0.1% Tween 20; detected with polyclonal anti-5′Nuc IgG or anti-SUMO IgG; apparent KD from four experiments

B1: 5′Nuc/SUMO fusion protein (Glossina morsitans morsitans 5′nucleotidase-related protein, recombinant, refolded) (enzyme)
chain: DDLYPLTIMHTNDFHARFEETNVKGNPCKSGEKCIGGLARVLHTIKKIIKEQEKKNIESLYINAGDNFQGTIWYNIGRWNVTSELMNIQPPDVMVLGNHEFDHGIDGLLPFLNNMDKTEIVVANMDARDEPQVAKKIKPFTIIKKKYRNIGVIGVVVEEVPDLANTGKLKFRNESEAILEAARNLKKEDPSVNIIIVVSHVGFDVDKIIAERTGSEVDIIVGGHSHTVLYTGTPPGPEKPEDNYPYVYNHPSGNKVLVVQAVCHAKYVGNLTVFFDKKGKVVTYEGAPIYMDTKVEQDKDVLEAMKPWRKLIDEKTKLVVGRTNVDLPRDICRSEECALGNLYTDSMIYAFGGKENCKSGSTWTTAPIAFVHAGAMRSSLHQGDILYSDALLLSPFTNMVVAYDLPGAQLKAALEFSAAPKNEDEKRRFLQMSGLKVTYNMSRAANNRIVDLKVRTNVCPYDQYENLDEKKTYRVVSPSFLQGGGDGFKMLRDYAKNIQNQKIDLDALVDYLKKFSPLAPKAEGRITIIH
Kd: 92 nM
